Measurements reported in patent US20240076396A1 (Regeneron, published 2024).
Positions count from the first letter of the chain named. Names and notes keep the numbering of the source.

B1: mAb2 (antibody, human IgG1, kappa, V domains shown)
VH: QVQLQESGPGLVKPSETLSLTCIVSGGSISGYFWNWIRQPPGKGLEWIGYIYYSGTTIYNPSLKSRFTISLDTSKNQFSLKLTSVTAADTAVYYCARESYEPSPRYFDHWGQGTLVTVSS
VL: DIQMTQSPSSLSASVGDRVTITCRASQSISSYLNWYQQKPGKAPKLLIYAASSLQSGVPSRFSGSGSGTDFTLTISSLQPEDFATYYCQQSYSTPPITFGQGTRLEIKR
notes: Human IgG1; N101E variant of CompAb1; also called N101E Variant; N101E
B2: CompAb1 (antibody, V domains shown)
VH: B1 VH with E101N
VL: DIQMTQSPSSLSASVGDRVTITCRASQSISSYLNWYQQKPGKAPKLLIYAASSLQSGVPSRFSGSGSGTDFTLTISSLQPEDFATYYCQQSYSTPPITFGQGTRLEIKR
notes: Human IgG1; also called WT; Sample Number 1
B3: mAb3 (antibody, human IgG1, kappa, V domains shown)
VH: B1 VH with E101S
VL: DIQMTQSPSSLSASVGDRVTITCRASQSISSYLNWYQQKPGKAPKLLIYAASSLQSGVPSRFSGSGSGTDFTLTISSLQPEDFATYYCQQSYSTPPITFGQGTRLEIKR
notes: Human IgG1; N101S variant of CompAb1; also called N101S Variant; N101S
B4: mAb4 (antibody, human IgG1, kappa, V domains shown)
VH: B1 VH with E101T
VL: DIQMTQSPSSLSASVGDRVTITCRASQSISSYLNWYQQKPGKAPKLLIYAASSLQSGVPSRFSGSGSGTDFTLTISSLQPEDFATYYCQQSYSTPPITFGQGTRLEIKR
notes: Human IgG1; N101T variant of CompAb1; also called N101T Variant; N101T
B5: CompAb1 heavy chain variant N101V (antibody, human IgG1, V domains shown)
VH: B1 VH with E101V
VL: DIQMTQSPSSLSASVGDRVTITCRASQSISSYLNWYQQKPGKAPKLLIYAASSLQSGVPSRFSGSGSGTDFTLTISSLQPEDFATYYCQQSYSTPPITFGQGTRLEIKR
notes: human IgG1 constant region; tested as CHOt supernatant; also called Sample Number 17
B6: CompAb1 heavy chain variant S103P (antibody, human IgG1, V domains shown)
VH: B1 VH with E101N, S103P
VL: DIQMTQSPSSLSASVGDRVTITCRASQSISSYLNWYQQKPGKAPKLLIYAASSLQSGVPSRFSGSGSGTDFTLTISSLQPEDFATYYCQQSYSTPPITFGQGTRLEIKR
notes: human IgG1 constant region; tested as CHOt supernatant; also called Sample Number 31
B7: CompAb1 heavy chain variant S103W (antibody, human IgG1, V domains shown)
VH: B1 VH with E101N, S103W
VL: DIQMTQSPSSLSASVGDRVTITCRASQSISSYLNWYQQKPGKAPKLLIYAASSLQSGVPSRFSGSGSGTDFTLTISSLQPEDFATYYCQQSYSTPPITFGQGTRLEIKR
notes: human IgG1 constant region; tested as CHOt supernatant; also called Sample Number 36
B8: CompAb1 heavy chain variant N101Q (antibody, human IgG1, V domains shown)
VH: B1 VH with E101Q
VL: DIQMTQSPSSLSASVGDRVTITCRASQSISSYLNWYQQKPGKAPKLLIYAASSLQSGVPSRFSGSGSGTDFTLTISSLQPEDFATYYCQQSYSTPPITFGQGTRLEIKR
notes: human IgG1 constant region; tested as CHOt supernatant; also called Sample Number 13
B9: CompAb1 heavy chain variant S103I (antibody, human IgG1, V domains shown)
VH: B1 VH with E101N, S103I
VL: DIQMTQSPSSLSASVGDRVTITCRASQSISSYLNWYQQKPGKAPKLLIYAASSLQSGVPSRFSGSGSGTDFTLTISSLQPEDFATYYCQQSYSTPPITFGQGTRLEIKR
notes: human IgG1 constant region; tested as CHOt supernatant; also called Sample Number 26
B10: CompAb1 heavy chain variant N101K (antibody, human IgG1, V domains shown)
VH: B1 VH with E101K
VL: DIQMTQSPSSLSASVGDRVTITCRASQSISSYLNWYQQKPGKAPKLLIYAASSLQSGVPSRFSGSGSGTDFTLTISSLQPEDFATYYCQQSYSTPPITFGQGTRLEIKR
notes: human IgG1 constant region; tested as CHOt supernatant; also called Sample Number 9
B11: CompAb1 heavy chain variant S103T (antibody, human IgG1, V domains shown)
VH: B1 VH with E101N, S103T
VL: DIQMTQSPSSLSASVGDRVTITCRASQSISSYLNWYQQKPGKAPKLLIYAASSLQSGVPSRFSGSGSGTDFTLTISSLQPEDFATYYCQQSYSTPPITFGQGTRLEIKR
notes: human IgG1 constant region; tested as CHOt supernatant; also called Sample Number 34
B12: CompAb1 heavy chain variant S103Q (antibody, human IgG1, V domains shown)
VH: B1 VH with E101N, S103Q
VL: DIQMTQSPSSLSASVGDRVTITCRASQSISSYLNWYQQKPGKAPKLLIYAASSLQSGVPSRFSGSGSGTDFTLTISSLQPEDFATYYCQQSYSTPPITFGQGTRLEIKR
notes: human IgG1 constant region; tested as CHOt supernatant; also called Sample Number 32
B13: CompAb1 heavy chain variant S103D (antibody, human IgG1, V domains shown)
VH: B1 VH with E101N, S103D
VL: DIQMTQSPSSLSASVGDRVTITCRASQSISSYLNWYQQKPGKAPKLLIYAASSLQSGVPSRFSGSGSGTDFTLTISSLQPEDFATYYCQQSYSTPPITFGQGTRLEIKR
notes: human IgG1 constant region; tested as CHOt supernatant; also called Sample Number 21
B14: CompAb1 heavy chain variant S103E (antibody, human IgG1, V domains shown)
VH: B1 VH with E101N, S103E
VL: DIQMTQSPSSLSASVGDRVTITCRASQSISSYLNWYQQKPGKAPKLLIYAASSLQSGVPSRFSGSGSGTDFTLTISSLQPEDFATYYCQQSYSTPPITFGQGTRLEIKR
notes: human IgG1 constant region; tested as CHOt supernatant; also called Sample Number 22
B15: CompAb1 heavy chain variant S103F (antibody, human IgG1, V domains shown)
VH: B1 VH with E101N, S103F
VL: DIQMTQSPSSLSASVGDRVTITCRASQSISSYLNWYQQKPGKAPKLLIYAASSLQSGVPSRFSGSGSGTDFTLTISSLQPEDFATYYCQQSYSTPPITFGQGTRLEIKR
notes: human IgG1 constant region; tested as CHOt supernatant; also called Sample Number 23
B16: CompAb1 heavy chain variant S103L (antibody, human IgG1, V domains shown)
VH: B1 VH with E101N, S103L
VL: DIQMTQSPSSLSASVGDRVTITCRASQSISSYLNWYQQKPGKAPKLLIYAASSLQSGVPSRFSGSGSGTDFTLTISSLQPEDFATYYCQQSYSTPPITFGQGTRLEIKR
notes: human IgG1 constant region; tested as CHOt supernatant; also called Sample Number 28
B17: CompAb1 heavy chain variant S103N (antibody, human IgG1, V domains shown)
VH: B1 VH with E101N, S103N
VL: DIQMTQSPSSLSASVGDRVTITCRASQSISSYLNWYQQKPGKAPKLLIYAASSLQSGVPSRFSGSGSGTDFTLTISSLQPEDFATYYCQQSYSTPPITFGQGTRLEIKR
notes: human IgG1 constant region; tested as CHOt supernatant; also called Sample Number 30
B18: CompAb1 heavy chain variant N101M (antibody, human IgG1, V domains shown)
VH: B1 VH with E101M
VL: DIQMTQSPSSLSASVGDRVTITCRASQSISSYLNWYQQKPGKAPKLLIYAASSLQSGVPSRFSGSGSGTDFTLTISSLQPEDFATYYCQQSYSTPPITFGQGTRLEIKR
notes: human IgG1 constant region; tested as CHOt supernatant; also called Sample Number 11
B19: CompAb1 heavy chain variant S103V (antibody, human IgG1, V domains shown)
VH: B1 VH with E101N, S103V
VL: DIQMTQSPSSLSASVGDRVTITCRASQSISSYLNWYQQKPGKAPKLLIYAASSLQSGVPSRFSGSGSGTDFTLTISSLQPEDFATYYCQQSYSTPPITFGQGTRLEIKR
notes: human IgG1 constant region; tested as CHOt supernatant; also called Sample Number 35
B20: CompAb1 heavy chain variant S103Y (antibody, human IgG1, V domains shown)
VH: B1 VH with E101N, S103Y
VL: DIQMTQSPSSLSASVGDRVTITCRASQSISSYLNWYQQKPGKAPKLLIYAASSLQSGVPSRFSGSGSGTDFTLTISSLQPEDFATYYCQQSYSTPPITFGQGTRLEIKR
notes: human IgG1 constant region; tested as CHOt supernatant; also called Sample Number 37
B21: CompAb1 heavy chain variant N101I (antibody, human IgG1, V domains shown)
VH: B1 VH with E101I
VL: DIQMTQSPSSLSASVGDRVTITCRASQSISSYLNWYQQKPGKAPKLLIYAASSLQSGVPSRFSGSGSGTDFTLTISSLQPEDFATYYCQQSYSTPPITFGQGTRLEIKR
notes: human IgG1 constant region; tested as CHOt supernatant; also called Sample Number 8
B22: CompAb1 heavy chain variant S103M (antibody, human IgG1, V domains shown)
VH: B1 VH with E101N, S103M
VL: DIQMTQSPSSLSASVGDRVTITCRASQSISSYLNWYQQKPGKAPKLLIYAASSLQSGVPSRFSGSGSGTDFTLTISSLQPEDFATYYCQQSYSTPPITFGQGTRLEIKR
notes: human IgG1 constant region; tested as CHOt supernatant; also called Sample Number 29
B23: CompAb1 heavy chain variant S103H (antibody, human IgG1, V domains shown)
VH: B1 VH with E101N, S103H
VL: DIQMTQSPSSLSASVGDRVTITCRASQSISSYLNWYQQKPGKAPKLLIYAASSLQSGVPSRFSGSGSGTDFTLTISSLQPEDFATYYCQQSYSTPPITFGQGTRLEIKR
notes: human IgG1 constant region; tested as CHOt supernatant; also called Sample Number 25
B24: CompAb1 heavy chain variant S103A (antibody, human IgG1, V domains shown)
VH: B1 VH with E101N, S103A
VL: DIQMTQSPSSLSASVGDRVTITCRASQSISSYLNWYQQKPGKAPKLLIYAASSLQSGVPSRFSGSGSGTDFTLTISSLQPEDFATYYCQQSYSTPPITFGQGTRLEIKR
notes: human IgG1 constant region; tested as CHOt supernatant; also called Sample Number 20
B25: CompAb1 heavy chain variant N101A (antibody, human IgG1, V domains shown)
VH: B1 VH with E101A
VL: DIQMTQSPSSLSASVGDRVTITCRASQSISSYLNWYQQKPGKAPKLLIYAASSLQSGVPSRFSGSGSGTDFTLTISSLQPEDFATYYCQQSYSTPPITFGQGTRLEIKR
notes: human IgG1 constant region; tested as CHOt supernatant; also called Sample Number 2
B26: CompAb1 heavy chain variant N101R (antibody, human IgG1, V domains shown)
VH: B1 VH with E101R
VL: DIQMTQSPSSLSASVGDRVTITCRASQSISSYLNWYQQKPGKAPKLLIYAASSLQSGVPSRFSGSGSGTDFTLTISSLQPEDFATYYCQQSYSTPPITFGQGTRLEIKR
notes: human IgG1 constant region; tested as CHOt supernatant; also called Sample Number 14
B27: CompAb1 heavy chain variant S103K (antibody, human IgG1, V domains shown)
VH: B1 VH with E101N, S103K
VL: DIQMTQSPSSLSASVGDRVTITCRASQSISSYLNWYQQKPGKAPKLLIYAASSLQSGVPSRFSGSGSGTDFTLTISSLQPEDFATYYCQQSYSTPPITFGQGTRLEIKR
notes: human IgG1 constant region; tested as CHOt supernatant; also called Sample Number 27
B28: CompAb1 heavy chain variant S103G (antibody, human IgG1, V domains shown)
VH: B1 VH with E101N, S103G
VL: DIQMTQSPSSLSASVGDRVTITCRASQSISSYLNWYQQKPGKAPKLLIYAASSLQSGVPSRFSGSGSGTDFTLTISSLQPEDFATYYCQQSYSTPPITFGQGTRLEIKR
notes: human IgG1 constant region; tested as CHOt supernatant; also called Sample Number 24
B29: CompAb1 heavy chain variant N101L (antibody, human IgG1, V domains shown)
VH: B1 VH with E101L
VL: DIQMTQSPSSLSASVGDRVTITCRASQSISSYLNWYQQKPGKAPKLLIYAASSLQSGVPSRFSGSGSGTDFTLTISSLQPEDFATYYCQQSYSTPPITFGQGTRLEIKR
notes: human IgG1 constant region; tested as CHOt supernatant; also called Sample Number 10

Target: T1, hGITR.mFc (dimeric recombinant human GITR ectodomain protein, mouse Fc fusion) (human)
T1 construct: also called dimeric human GITR; dimeric GITR
T1 chain: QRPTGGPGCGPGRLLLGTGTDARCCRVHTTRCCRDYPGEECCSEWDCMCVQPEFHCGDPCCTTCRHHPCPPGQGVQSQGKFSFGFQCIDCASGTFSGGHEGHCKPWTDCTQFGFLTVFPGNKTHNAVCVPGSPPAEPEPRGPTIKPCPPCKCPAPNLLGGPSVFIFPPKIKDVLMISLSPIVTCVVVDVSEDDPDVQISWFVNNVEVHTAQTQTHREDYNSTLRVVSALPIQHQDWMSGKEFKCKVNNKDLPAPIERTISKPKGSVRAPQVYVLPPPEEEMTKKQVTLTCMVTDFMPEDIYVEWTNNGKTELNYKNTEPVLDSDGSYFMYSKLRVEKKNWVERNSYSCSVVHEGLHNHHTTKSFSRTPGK
Assay: SPR Biacore T-200; purified antibody captured on anti-human Fc; 5 nM hGITR.mFc
Description: (§1) For purified antibodies, Biacore experiments were performed as follows. Using a Biacore T-200 instrument, antibodies were captured for 30 seconds at a flow rate of 8 uL/min on a CM5 anti-humanFc-coupled surface. Approximately 120 RU of each antibody were captured. 10 nM hGITR.mmH (soluble monomeric hGITR, SEQ ID NO: 45) or 5 nM hGITR.mFc (dimeric Macaca fasicularis GITR, SEQ ID NO: 46) were injected over this surface for 5 minutes at a flow rate of 50 uL/min. Dissociation was measured for 10 min. The KD and t_{1/2} were calculated by fitting the double-referenced sensorgrams to a 1:1 binding model.

| Binder | Kd [nM] | t1/2 [min] |
| --- | --- | --- |
| B1 | 0.902 | 9.55 |
| B2 | 0.137 | 35.6 |
| B3 | 0.882 | 5.56 |
| B4 | 0.663 | 10 |

Target: T2, hGITR.mmH (soluble monomeric recombinant human GITR ectodomain protein) (human)
T2 construct: also called monomeric human GITR
T2 chain: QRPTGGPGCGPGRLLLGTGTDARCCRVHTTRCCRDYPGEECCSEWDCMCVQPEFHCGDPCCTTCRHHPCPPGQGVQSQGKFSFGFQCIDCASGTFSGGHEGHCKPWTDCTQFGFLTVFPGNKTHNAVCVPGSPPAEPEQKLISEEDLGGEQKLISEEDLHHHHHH
Assay: SPR Biacore 2000 25C; CHOt supernatant antibody captured on anti-human Fc; 100 nM hGITR.mmH
Description: (§2) Biacore experiments for antibodies secreted in conditioned culture medium were performed as follows. Using a Biacore 2000 instrument at 25° C., antibodies were captured for 80 seconds at a flow rate of 8 uL/min on a CM5 anti-humanFc-coupled surface. Approximately 1000-2000 RU of each antibody were captured. 100 nM hGITR.mmH (soluble monomeric hGITR, SEQ ID NO: 45) or 50 nM hGITR.mFc (dimeric Macaca fasicularis GITR, SEQ ID NO: 46) were injected over this surface for 2 minutes at a flow rate of 50 uL/min. Dissociation was measured for 2 minutes. The KD and t_{1/2} were calculated by fitting the double-referenced sensorgrams to a 1:1 binding model.

| Binder | Kd [nM] | t1/2 [min] |
| --- | --- | --- |
| B1 | 109 | 0.99 |
| B2 | 24.9 | 4.56 |
| B5 | 29.1 | 3.46 |
| B6 | 28.4 | 11.2 |
| B7 | 116 | 0.94 |
| B8 | 3.41 | 16.7 |
| B9 | 10.1 | 11.5 |
| B10 | 17 | 4.91 |
| B11 | 29.6 | 3.88 |
| B12 | 96.8 | 0.92 |
| B13 | 77.1 | 1.01 |
| B14 | 119 | 0.76 |
| B15 | 7.35 | 13.6 |
| B16 | 85.2 | 4.59 |
| B17 | 119 | 0.95 |
| B18 | 152 | 1.93 |
| B19 | 7.39 | 14.7 |
| B20 | 4.39 | 26.6 |
| B21 | 329 | 1.32 |
| B22 | 4.62 | 15.2 |
| B23 | 12.6 | 16.4 |
| B3 | 81.9 | 0.92 |
| B24 | 108 | 0.83 |
| B4 | 61.3 | 1.52 |

Target: T1, hGITR.mFc (dimeric recombinant human …)
Assay: SPR Biacore 2000 25C; CHOt supernatant antibody captured on anti-human Fc; 50 nM hGITR.mFc
Description: as §2

| Binder | Kd [nM] | t1/2 [min] |
| --- | --- | --- |
| B1 | 1.27 | 34.9 |
| B2 | 0.201 | 194 |
| B5 | 23.9 | 0.98 |
| B6 | 7.79 | 2.92 |
| B7 | 1.61 | 27 |
| B8 | 9.98 | 3.86 |
| B25 | 42.4 | 0.47 |
| B9 | 6.51 | 4.41 |
| B10 | 26.9 | 0.99 |
| B11 | 0.127 | 249 |
| B12 | 0.255 | 124 |
| B13 | 0.595 | 65 |
| B14 | 0.742 | 42.4 |
| B15 | 2.33 | 12.8 |
| B16 | 15.9 | 1.66 |
| B17 | 1.01 | 41.4 |
| B26 | 29.4 | 0.86 |
| B18 | 24 | 0.82 |
| B19 | 3.82 | 7.8 |
| B20 | 3.03 | 10.4 |
| B21 | 27.5 | 0.72 |
| B22 | 1.04 | 27.3 |
| B27 | 47.5 | 0.64 |
| B28 | 5.56 | 7.4 |
| B23 | 6.68 | 4.63 |
| B3 | 0.908 | 37.7 |
| B24 | 0.529 | 50.3 |
| B4 | 0.284 | 110 |
| B29 | 57.5 | 0.45 |

Target: T2, hGITR.mmH (soluble monomeric …)
Assay: SPR Biacore 2000 25C; CHOt supernatant antibody captured on anti-human Fc
Description: as §2

| Binder | binding result |
| --- | --- |
| B25 | no binding (tested: 100 nM hGITR.mmH) |
| B27 | no binding (tested: 100 nM hGITR.mmH) |
| B29 | no binding (tested: 100 nM hGITR.mmH) |

Target: T2, hGITR.mmH (soluble monomeric …)
Assay: SPR Biacore T-200; purified antibody captured on anti-human Fc; 10 nM hGITR.mmH
Description: as §1

| Binder | Kd [nM] | t1/2 [min] |
| --- | --- | --- |
| B1 | 11.3 | 2.8 |
| B2 | 1.51 | 6.75 |
| B3 | 6.05 | 4.65 |
| B4 | 8 | 2.25 |
